# How the values were obtained:
# 26·29 kDa protease = conditions: stated under Prior Art; cited from earlier work
# [1] = Assay of protease activity with fluorescent peptidyl-MCA substrates; type: biochemical; conditions: for Hydrolysis of Z-Arg-Arg-MCA (in words): substrate Z-Arg-Arg-MCA
# Description: Table 2 lists specific activities of 26·29 kDa protease, cathepsin B from flesh fly and cathepsin L from flesh fly to various substrates, which were measured in terms of their hydrolytic activities against the fluorescence-attached synthetic substrates. The numeral represents the mass of fluorescent synthetic substrate hydrolyzed by a unit weight of protease, or a specific activity of that enzyme. For the numerals of Table, one unit of activity is defined as a weight of enzyme necessary for hydrolyzing 1 μmol of substrate in 10 minutes. "ND" in Table represents no result because the test not being made. Sequence listing numbers for sequences in Table 2 are: SEQ ID NO:100 and SEQ ID NO:101.
# Assay of enzymatic activity was performed using 0.2 ml of 5 mM sodium phosphate (pH 6.0) containing 0.05 mM peptidyl-MCA substrate, 100 mM NaCl, 1 mM EDTA, 5 mM 2-mercaptoethanol, and 10 μl of the test fraction. The solution was incubated at 27° C. for 10 minutes, to which was added 0.2 ml of 20% aqueous solution of acetic acid to stop the reaction. Fluorescence at 380 nm and 460 nm was observed. The amount necessary for hydrolyzing 1 μmol substrate in 10 minutes under the above condition was defined as one unit of protease activity.
# For purification of 26·29 kDa protease, carbobenzoxy-Arg-Arg-MCA was used as the substrate. Further, for determination of substrate specificity, various peptidyl-MCAs were used.
# [2] = cited from earlier work
# [3] = Assay of protease activity with fluorescent peptidyl-MCA substrates; type: biochemical; conditions: for Recovery of protease activity after treatment to restore activity: condition effective for recombinant human cathepsin L precursor, natural protease denatured first
# [4] = substrate Suc-Ala-Ala-Pro-Phe-MCA
# [5] = substrate Suc-Leu-Leu-Val-Tyr-MCA
# [6] = substrate z-Arg-Arg-MCA, 1 unit hydrolyzes 1 μmol substrate in 10 minutes
# Sequence of cathepsin L from flesh fly (Q26636 122-339 limits assumed): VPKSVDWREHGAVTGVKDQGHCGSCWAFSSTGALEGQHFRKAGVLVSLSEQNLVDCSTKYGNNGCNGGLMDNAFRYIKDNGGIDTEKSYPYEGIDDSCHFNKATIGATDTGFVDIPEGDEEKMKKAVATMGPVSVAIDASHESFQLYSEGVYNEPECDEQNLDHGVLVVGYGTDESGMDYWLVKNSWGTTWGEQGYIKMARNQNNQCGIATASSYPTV
molecule,measurement,setting,value
"26·29 kDa protease of flesh fly (Sarcophaga peregrina), isolated and purified from body fluid cells (enzyme)",Activity (units/mg enzyme) (units/mg enzyme),Suc-Ala-Pro-Phe-MCA,0.01
same,Activity (units/mg enzyme) (units/mg enzyme),Boc-Phe-Ser-Arg-MCA,0.15
same,Activity (units/mg enzyme) (units/mg enzyme),Suc-Leu-Leu-Val-Tyr-MCA,0.03
same,Activity (units/mg enzyme) (units/mg enzyme),Pyr-Gly-Arg-MCA,0.03
same,Activity (units/mg enzyme) (units/mg enzyme),Z-Phe-Arg-MCA,2.25
same,Activity (units/mg enzyme) (units/mg enzyme),Suc-Ala-Ala-Pro-Phe-MCA,0.01
same,Activity (units/mg enzyme) (units/mg enzyme),Boc-Val-Leu-Lys-MCA,0.61
same,Activity (units/mg enzyme) (units/mg enzyme),Z-Arg-Arg-MCA,4.29
CC(C)C[C@H](NC(=O)[C@H]1O[C@@H]1C(=O)O)C(=O)NCCCCN=C(N)N [E64],Inhibition of protease activity,26·29 kDa protease,inhibited
cathepsin B from flesh fly (enzyme),Activity (units/mg enzyme) (units/mg enzyme),Suc-Ala-Pro-Phe-MCA,0.83
same,Activity (units/mg enzyme) (units/mg enzyme),Suc-Leu-Leu-Val-Tyr-MCA,18.7
same,Activity (units/mg enzyme) (units/mg enzyme),Pyr-Gly-Arg-MCA,0.29
same,Activity (units/mg enzyme) (units/mg enzyme),Z-Phe-Arg-MCA,20.6
same,Activity (units/mg enzyme) (units/mg enzyme),Suc-Ala-Ala-Pro-Phe-MCA,0.5
same,Activity (units/mg enzyme) (units/mg enzyme),Z-Arg-Arg-MCA,0.86
"cathepsin B: cathepsin B from flesh fly, comparison cysteine protease",Activity (units/mg enzyme),[1]; substrate Pyr-Gly-Arg-MCA,0.29 units/mg enzyme
same,Activity (units/mg enzyme),[1]; [4],0.5 units/mg enzyme
same,Activity (units/mg enzyme),[1]; substrate Suc-Ala-Pro-Phe-MCA,0.83 units/mg enzyme
same,Activity (units/mg enzyme),[1]; [5],18.7 units/mg enzyme
same,Hydrolysis of Z-Arg-Arg-MCA (in words),[1],scarcely hydrolyzes
same,Activity (units/mg enzyme),[1]; [6],0.86 units/mg enzyme
same,Activity (units/mg enzyme),[1]; substrate z-Phe-Arg-MCA,20.6 units/mg enzyme
same,"Hydrolysis of Suc-Leu-Leu-Val-Tyr-MCA (in words, literature)","[2]; substrate Suc-Leu-Leu-Val-Tyr-MCA, Kurata et al. 1992",hydrolyzes
same,"Hydrolysis of Z-Arg-Arg-MCA (in words, literature)","[2]; substrate Z-Arg-Arg-MCA, Takahashi et al. 1993",can not hydrolyze
cathepsin L from flesh fly (enzyme),Activity (units/mg enzyme) (units/mg enzyme),Suc-Leu-Leu-Val-Tyr-MCA,0.04
same,Activity (units/mg enzyme) (units/mg enzyme),Z-Phe-Arg-MCA,180
same,Activity (units/mg enzyme) (units/mg enzyme),Z-Arg-Arg-MCA,0.17
"cathepsin L: cathepsin L from flesh fly, comparison cysteine protease",Activity (units/mg enzyme),[1]; [5],0.04 units/mg enzyme
same,Hydrolysis of Z-Arg-Arg-MCA (in words),[1],practically does not hydrolyze
same,Activity (units/mg enzyme),[1]; [6],0.17 units/mg enzyme
same,Activity (units/mg enzyme),[1]; substrate z-Phe-Arg-MCA,180 units/mg enzyme
"26.multidot.29 kDa protease: bimolecular cysteine protease of 26 kDa and 29 kDa subunits, purified from body fluid cells of flesh fly (Sarcophaga peregrina) (protein) chain 1: TNPPRWDPNYIVKGTLYIPYAEIAEPFYAWYDKNTRRSRIDYYGGMVKTYQLANEHPFGTSLKLAPITTKSELNKVTCLQLNGTSEDPVQVQAILPNAKDFKLIGTETFLGFNCDKFRLEETIGDKKNVYTLWVRYKKSPHYPASRMPIPVRYEMRGYNTLLGSHYDHYYLDYDSYDHDDIPNEVFELDDNMECMPFPGPGK chain 2: NGGNLVRLSQQALIDCSWEYGNNGCDGGEDFRAYKWMMEMGGVPTEEEYGPYLGQDGYCHAKNVSLVAPITGFFNVTPNDPMALKIALLKHGPISVAIDASPKTFSFYSHGVYYEPTCKNGLDELDHAVLAVGYGTINGEDYWLVKNSWSTYWGNDGYILMSARKNNCGVMTMPTYVEM",Activity (units/mg enzyme),[1]; substrate Boc-Phe-Ser-Arg-MCA,0.15 units/mg enzyme
same,Activity (units/mg enzyme),[1]; substrate Boc-Val-Leu-Lys-MCA,0.61 units/mg enzyme
same,Activity (units/mg enzyme),[1]; substrate Pyr-Gly-Arg-MCA,0.03 units/mg enzyme
same,Activity (units/mg enzyme),[1]; [4],0.01 units/mg enzyme
same,Activity (units/mg enzyme),[1]; substrate Suc-Ala-Pro-Phe-MCA,0.01 units/mg enzyme
same,Activity (units/mg enzyme),[1]; [5],0.03 units/mg enzyme
same,Hydrolysis of Z-Arg-Arg-MCA (in words),[1],well hydrolyzes
same,Hydrolysis of Z-Phe-Arg-MCA (in words),[1]; substrate Z-Phe-Arg-MCA,has also a hydrolyzing activity
same,Activity (units/mg enzyme),[1]; [6],4.29 units/mg enzyme
same,Activity (units/mg enzyme),[1]; substrate z-Phe-Arg-MCA,2.25 units/mg enzyme
same,Recovery of protease activity after treatment to restore activity,[3],no positive effects
"recombinant homologue of 29 kDa subunit: recombinant protein of 29 kDa subunit expressed in E. coli, recovered as inclusion bodies (protein) NGGNLVRLSQQALIDCSWEYGNNGCDGGEDFRAYKWMMEMGGVPTEEEYGPYLGQDGYCHAKNVSLVAPITGFFNVTPNDPMALKIALLKHGPISVAIDASPKTFSFYSHGVYYEPTCKNGLDELDHAVLAVGYGTINGEDYWLVKNSWSTYWGNDGYILMSARKNNCGVMTMPTYVEM",Recovery of protease activity after treatment to restore activity,[3],could not recover its activity
same,Protease activity towards Z-Arg-Arg-MCA of recombinant protein expressed in E. coli,[3]; homogenate or inclusion bodies from expressing E. coli cells,only as much as the control E. coli cells

# Reference: US6103514A, “Protease” (The University of Tokyo, priority 1997, dated 2000)
